The experiment deals with T1, His-tagged recombinant Mouse TIGIT (mouse, UniProt P86176 29-148, limits assumed).
T1 construct: not shown: His tag
T1 sequence (looked up): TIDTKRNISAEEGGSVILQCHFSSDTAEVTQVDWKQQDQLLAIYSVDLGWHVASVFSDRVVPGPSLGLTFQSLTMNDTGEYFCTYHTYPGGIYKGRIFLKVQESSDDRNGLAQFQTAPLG
The experiment can be described thus: ELISA, coated His-tagged mouse TIGIT. As to the method:
Binding affinities for antigen binding to anti-TIGIT monoclonal antibodies were determined by ELISA. […] Antibodies to be tested were diluted to 1 μM in PBS buffer containing 1% BSA and diluted 3-fold in a 10-point curve. […] Detection of the secondary antibody was determined using streptavidin-HRP and TMB reagent. All assays were performed at room temperature. Curve-fitting software was used to determine the EC₅₀ for each antibody.

B1: Ab11 (Fab, V domains shown)
VH: EVQLLESGGGLVQPGGSLRLSCAASGFTFSSYGMHWVRQAPGKGLEWVASISSNGGYTSYADSVKGRFTISRDNSKNTLYLQMNSLRAEDTAVYYCARVPYGYWIDYWGQGTLVTVSS
VL: not shown
notes: ARV set
The term EC50 denotes the concentration needed to bring the measured effect to its halfway point. In the case of B1, the EC50 came out at 359 nM.

B2: Ab37 (Fab, V domains shown)
VH: EVQLLESGGGLVQPGGSLRLSCAASGFTFSSYGMNWVRQAPGKGLEWVSDINSNSGSTSYADSVKGRFTISRDNSKNTLYLQMNSLRAEDTAVYYCARGPYGVWLDYWGQGTLVTVSS
VL: not shown
notes: ARG set
With B2, the EC50 is 221 nM.

B3: Ab106 (Fab, V domains shown)
VH: EVQLLESGGGLVQPGGSLRLSCAASGFTFSSYAMNWVRQAPGKGLEWVASIKSSTGTISYADSVKGRFTISRDNSKNTLYLQMNSLRAEDTAVYYCAREPYSVWIDYWGQGTLVTVSS
VL: not shown
notes: ARE set
In the case of B3, the half-maximal effective concentration (EC50) worked out at 125 nM.

B4: Ab35 (Fab, V domains shown)
VH: EVQLLESGGGLVQPGGSLRLSCAASGFTFSSYGMHWVRQAPGKGLEWVASISSSSGYKYYADSVKGRFTISRDNSKNTLYLQMNSLRAEDTAVYYCARVPYSYWMDYWGQGTLVTVSS
VL: not shown
notes: ARV set
Regarding B4, the EC50 stood at 357 nM.

B5: Ab112 (Fab, V domains shown)
VH: EVQLLESGGGLVQPGGSLRLSCAASGFTFSSYAMSWVRQAPGKGLEWVASISSNTGSIYYADSVKGRFTISRDNSKNTLYLQMNSLRAEDTAVYYCARVPYSYWLDYWGQGTLVTVSS
VL: not shown
notes: ARV set
With B5, the EC50 turned out to be 213 nM.

B6: Ab118 (Fab, V domains shown)
VH: EVQLLESGGGLVQPGGSLRLSCAASGFTFSSYAMSWVRQAPGKGLEWVSSINSNAGTSYYADSVKGRFTISRDNSKNTLYLQMNSLRAEDTAVYYCARVPYGYWMDYWGQGTLVTVSS
VL: not shown
notes: ARV set
Regarding B6, the EC50 was determined as 110 nM.

B7: Ab62 (Fab, V domains shown)
VH: EVQLLESGGGLVQPGGSLRLSCAASGFTFSSYSMSWVRQAPGKGLEWVASISSSAGYSYYADSVKGRFTISRDNSKNTLYLQMNSLRAEDTAVYYCARVPYDVWIDYWGQGTLVTVSS
VL: not shown
notes: ARV set
With B7, the EC50 was determined as 361 nM.

B8: Ab120 (Fab, V domains shown)
VH: EVQLLESGGGLVQPGGSLRLSCAASGFTFSSYSMNWVRQAPGKGLEWVSSINSNAGTIYYADSVKGRFTISRDNSKNTLYLQMNSLRAEDTAVYYCARVPYDYWIDYWGQGTLVTVSS
VL: not shown
notes: ARV set
As for B8, the EC50 was 254 nM.

B9: Ab58 (Fab, V domains shown)
VH: EVQLLESGGGLVQPGGSLRLSCAASGFTFSSYAMSWVRQAPGKGLEWVSSIKSSAGSSYYADSVKGRFTISRDNSKNTLYLQMNSLRAEDTAVYYCAREPYDVWIDYWGQGTLVTVSS
VL: not shown
notes: ARE set
In the case of B9, the EC50 was determined as 170 nM.

B10: Ab63 (Fab, V domains shown)
VH: EVQLLESGGGLVQPGGSLRLSCAASGFTFSSYSMHWVRQAPGKGLEWVASISGSTGTSYYADSVKGRFTISRDNSKNTLYLQMNSLRAEDTAVYYCARVPYGYWIDYWGQGTLVTVSS
VL: not shown
notes: ARV set
In the case of B10, the EC50 is 178 nM.

B11: Ab125 (Fab, V domains shown)
VH: EVQLLESGGGLVQPGGSLRLSCAASGFTFSSYSMHWVRQAPGKGLEWVASIKGNAGTTYYADSVKGRFTISRDNSKNTLYLQMNSLRAEDTAVYYCAKVPYDVWMDYWGQGTLVTVSS
VL: not shown
notes: ARV set
Take B11: the EC50 amounted to 150 nM.

B12: Ab33 (Fab, V domains shown)
VH: EVQLLESGGGLVQPGGSLRLSCAASGFTFSSYGMHWVRQAPGKGLEWVSDISSNGGTIYYADSVKGRFTISRDNSKNTLYLQMNSLRAEDTAVYYCARGPYGVWLDYWGQGTLVTVSS
VL: not shown
notes: ARG set
Consider B12, for which the EC50 was 85.4 nM.

B13: Ab30 (Fab, V domains shown)
VH: EVQLLESGGGLVQPGGSLRLSCAASGFTFSSYGMHWVRQAPGKGLEWVASIKSNSGNTGYADSVKGRFTISRDNSKNTLYLQMNSLRAEDTAVYYCARVPYSVWMDYWGQGTLVTVSS
VL: not shown
notes: ARV set
For B13, the EC50 amounted to 135 nM.

Source of the values: patent publication US20200339678A1 (RIGEL PHARMACEUTICALS, published 2020).
